The target in this series is thrombin (UniProt P00734;P00734 328-363;364-622). Put plainly: single-molecule TIRF, transient Cy3 probe binding to switch; LOD 20 pM (not a Kd); no specific signal without thrombin; 1x PBS with oxygen scavenger system, 20 nM Cy3 probe, 25 +/- 1 C; switch immobilised on PEG/biotin-PEG streptavidin glass.

B1: thrombin-responsive three-way-junction molecular switch (B4 + G13 + CP1, probed by FP1) (structured_DNA)
DNA 1: TGGGATGGTTGGTGTGGTTGGCCGTACTCTATGAGCCTCTG
DNA 2: TCAGTGGGGTTGGACGGGATGGTGCCTGACCGTGT
DNA 3: TTTTTCAGAGGCTCATAGAGTACGG
DNA 4: AAACACGGATCCCATA
As to B1, the binding result is “binds”.
